Measurements as given in the supplement of paper PMC9170038.

Test system: K4 kissing-loop RNA reporter
Assay: apparent KD of K4 kissing-loop reporter; higher = weaker reporter binding
Details: Eterna round: R107
Method: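 RNA-MaP round R107: designed RNA switches with theophylline, tryptophan, arginine or FMN aptamers are transcribed on-chip within common flanks. They are titrated with a labelled K4 kissing-loop RNA reporter in RNA-MaP buffer (100 mM Tris pH 7.5, 80 mM KCl, 4 mM MgCl2), without ligand or with the indicated ligand. Median apparent KD per design.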

[1] = input ligand: theophylline 20 uM
[2] = input ligand: tryptophan 2.4 mM
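Further: bound reporter read as fluorescence of individual clusters on recovered sequencing chips by microscopy, with normalized cluster intensities fitted with a binding model.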

Sequence	apparent KD of K4 kissing-loop reporter (input ligand: FMN 200 uM)	apparent KD of K4 kissing-loop reporter (input ligand: arginine 13.2 mM)	apparent KD of K4 kissing-loop reporter (input ligand: none)	apparent KD of K4 kissing-loop reporter [1]	apparent KD of K4 kissing-loop reporter [2]
UGUAUGGACUGAAGGAGCGGUAUAUAAACUGAGUGAUGUUCGGCAGAUAAAGGCGCAAGCCACCAGGUAGGUCGCAGUCCAUACU [KL-SSArg B2]	453 nM	207 nM	381 nM	390 nM	342 nM
UGUAUGUGAUUUGAUACCAGACCAGCUGGUGGAAUCUGAGUGAUGUUCAGGUAGGUUUGGGUCCCUUGGCAGCAAAUCGCAUACU [KL-SSTheoB27]	203 nM	145 nM	182 nM	181 nM	170 nM
UGUCAUUGGUCGGCCGCCACUAGAAGGUCAAAGACCAUGGAGUGAUGUUCUAAGACGAAAGUCACUAGGACCGGGACCGAUGACU [TrypBS 5 #SwitchBubble #K4Middle]	1640 nM	689 nM	1450 nM	918 nM	575 nM
UGUCAUUGGUCGGCCGCCACUCCAUAAAGAGUGAUGUUCUGAAAGACGGAUCGAAAGAUCUGUCGGAGGACCGGGACCGAUGACU [FiskerMod 3 - Jieux - Same State - Tryptophan B]	1310 nM	665 nM	1540 nM	896 nM	237 nM
UGUCAUUGGUCUGAUACCAGUUGGGACGAAUACGUCCAACUGGAGUGAUGUUCCUAAAACAACCCUUGGCAGCAGACCGAUGACU [TheoBS 13 #SwitchBubble 13 #StaticStem]	870 nM	782 nM	1040 nM	638 nM	750 nM
UGUCGAGUGAUGUUCGAUGUGGUGCAUUCAGAGGAUAUAGGGUGGGCUAGAAGGCUGAAAAGUGCUUCGAGUGAUGUUCGAAGAU [Exclusion FMN A GF8]	70.6 nM	117 nM	144 nM	132 nM	110 nM
UGUCUUUUUUUGAUGUUUUUUGUAUAAUGGCAGGAUAUCGUAGAGGCGAGAAGGGCUUUUAUGCGUUAUGAGUGAUGUUUGUAGG [vevvmullin]	321 nM	240 nM	302 nM	295 nM	220 nM
UGUGAGCUGUCGACAAAAGUCGACUAAAGCGAGGAUAUGACGAAAGUCAGAAGGCGUCAAUAAUGGAGUGAUGUUCCUGCUCACU [FmnA 9 G29]	306 nM	436 nM	596 nM	489 nM	406 nM
UGUGAUGAGUAGAGUGAUGUUUUGAAGGAUACCAGAGUGUUGUUAUUCCCUUGGCAGCUUGAGUGAUGUUUGAUGUUGUUGUAGU [zizmullin]	303 nM	213 nM	248 nM	246 nM	196 nM
UGUGGAGAAUAUGAUACCAGCAGUGAGAGAGAGGAAGUAUAGUGAUGUUAUAUGAGAGAAUGCCCUUGGCAGCAUAAGAAGAAGG [SSTheophylB.D]	216 nM	155 nM	170 nM	277 nM	186 nM
UGUGUACCGGGAAGGAGCGUGAAUGAGAAUGGAUAUAGUGAUGUUAUAUAUACGAACGAAUCGCAGGUAGGUCGCCCGGAUCCCU [SSArgB.Y]	418 nM	408 nM	432 nM	444 nM	345 nM
UGUGUUGUUUUGAUGUUUGGUGUUUGUUGGCAGGAUAUCGUAGAGGCGAGAAGGGCUUUGUUGCGGUAUGAGUGAUGUUUGUAGG [szzrmullin]	349 nM	174 nM	295 nM	244 nM	255 nM
UGUUAUGUAUCAGGAUAUUAGUGAUGUUUGUUUAUGUUAGUGAUGUUGAUAUUUGUUUUAUGUAUUUAAGAAGGGAUUGAGAAGU [ffcfxmullin]	62.1 nM	21.4 nM	45.6 nM	30.2 nM	49.3 nM
UGUUUUUACUGAAGGAGCGGCAAUUGAUACGUAGAUAUAGUGAUGUUAUAUAAGAUAGAGAGCCAGGUAGGUCGCAGAGUGUUUC [ExArgB.aA]	250 nM	195 nM	194 nM	194 nM	172 nM
UUAAAAUAUAUAAAUAAUAAGGGAAUUGAUACCAGACAGAAUUCUGUCCCUUGGCAGCAGUGAUGUUGUUGCAAUUUAAAUAAUU [AK1 Exc Theophylline A]	104 nM	148 nM	112 nM	136 nM	85.7 nM
UUAAUAAUUCAAGGAUAUGUUUUCUAUUUCGAGUGAUGUUCGGUAUUAAUAAAUUUAAUAGAUUAUACAGAAGGUGAUGGAUAGU [Cynwulf-mod#5]	108 nM	101 nM	84.2 nM	99.1 nM	65.8 nM

Sequence	apparent KD of K4 kissing-loop reporter (input ligand: FMN 200 uM)	apparent KD of K4 kissing-loop reporter (input ligand: arginine 13.2 mM)	apparent KD of K4 kissing-loop reporter (input ligand: none)	apparent KD of K4 kissing-loop reporter [1]	apparent KD of K4 kissing-loop reporter [2]
UUAGAGAUCUCAGGAUAUGAGUGAUGUUGGUGUCAAGAUCUGAGAUAGAAUUCUAUCUCAGAUCAAUCAGAAGGGAGAUCUCAUU [AK2.2 Exc FMN B]	325 nM	294 nM	483 nM	485 nM	413 nM
UUAGUCUAGAGAAGGAGCGAGUGAUGUUUGCUAAGAUCUAUGAUAUCAUAGAUCAAAUUUACUCAGGUAGGUCGCUCUAGACAUU [AK4 Exc Arginine B]	294 nM	53.1 nM	182 nM	165 nM	137 nM
UUAUAUAAGGGAAGGAGCGCGUGGGCGCAGUGAUGUUGCGCCCGACAUCACUUCAACUUAACGCAGGUAGGUCGCCCUUUUAAUA [Arginine B (Excl) V4]	188 nM	194 nM	209 nM	206 nM	209 nM
UUCAUCGUGGUUCACGGGUGGUAUGAAACGCGAGGACCGGUACGGCCGCCACUCGGUUCCGCUUGUUGAGUGAUGUUCAAUAUUU	239 nM	333 nM	290 nM	323 nM	257 nM
UUCUUGAUGGAAACAUCGAGGAUUACUGAUACCAGUAUCGAUAGAUACCCUUGGCAGCAGAAUCAGUAAUCACGAGUGAUGUUCG [Ex Theophylline A K4 6]	662 nM	497 nM	841 nM	583 nM	460 nM
UUGAGCCUGACGUAAGUCAGGCUCUGCGAGCGAGGACCGGUACGGCCGCCACUCGGUGCAGUGAUGUUGCAUGGCCGCAAGGCCG [#2 Exclusion - Tryptophan A Attempt #15 (HarryS)]	278 nM	257 nM	363 nM	259 nM	339 nM
UUGAUAUGAUAGUAUCCUGUUUGAUAAAGGCAGGAUAUCGAAAAUUCGAGAAGGGCCAUUAUAUGCAGUGAUGUUGCAAAUAAGU [Exclusion FMN A Gf 24]	76.8 nM	68.4 nM	52.6 nM	69 nM	43.6 nM
UUGGAAAUCAGAAGGAGCGUCUAAAAUAAGAGAACCAGUGAUGUUGGUUUUAUUUAAUGAAGACAGGUAGGUCGCUGAAUUUUUA [Same State Arginie B GF 19]	100 nM	95.2 nM	99.3 nM	96.1 nM	94.9 nM
UUGGAGUGAUGUUCCAUGUCUUGAGCCGAAGGAGCGCCUUUCUAGGCAGGUAGGUCGCGGCAGAAGGUACCAGUGAUGUUGGAAA [Same State Arginine A GF9]	161 nM	225 nM	283 nM	222 nM	164 nM
UUGUUUAACUGAAGGAGCGGCAAUUGAUACGUAGAUAUAGUGAUGUUAUAUAAGAUAGAGAGCCAGGUAGGUCGCAGAGGUGUUU [ExArgB.R]	231 nM	227 nM	246 nM	219 nM	190 nM
UUUAUGAUGUCGGCCGCCACUGGAUUAAUAUGUGUGUAAUCUAGUUCUGAGUGAUGUUUAGAGUCCAGGACCGGGACAUUUGUUA [#11 K4 Tryptophan B Exclusion]	542 nM	373 nM	522 nM	649 nM	452 nM
UUUAUUAAGACGGCCGCCACUGAAUUAGAGUGAUGUUCUAAAAUUACUAAAUUAAAUUUAUUCAACAGGACCGGGUCAAUUAUUA [JR_SSTryptoB_Sub010]	399 nM	405 nM	461 nM	432 nM	513 nM
UUUCUACCGGGAAGGAGCGUGAAUGAUAAUGGAUAUAGUGAUGUUAUAUAUACGAACGAAUCGCAGGUAGGUCGCCCGGAUGACU [SSArgB.T]	586 nM	503 nM	724 nM	550 nM	486 nM
UUUCUUUUAAUAACACUUUAUACAACUGAAGGAGCGACAAUAAAGUCAGGUAGGUCGCAGAAUUAAUGAGUGAUGUUCAUAUUUA [JR_ExcArginiA_Sub012]	95.4 nM	197 nM	121 nM	180 nM	83 nM
UUUGGAAGCGGUGUUGAUUAGGGAGCGGAAGGAGCGCCGAUUAUGGCAGGUAGGUCGCCGGAAUGUAGUGAUGUUGCAUAGAGGG [ExArgA.W]	209 nM	234 nM	202 nM	263 nM	83.9 nM
UUUGGAGUGGGAGGAUAUCCUAAUAUGGGUGAUGUUAGCGAUGUUGAAGGUGUAGUGAUGUUAUGCGGAGAAGGCCCACUGUAGA [BDazzled - #19 - Exc. FMN B]	95 nM	78.8 nM	131 nM	85.6 nM	89.2 nM
